Assay results taken from the supplement of paper PMC10065799, “High-throughput profiling of sequence recognition by tyrosine kinases and SH2 domains using bacterial peptide display” (eLife, 2023).

How the values were obtained:
Grb2 SH2 = Grb2 SH2 (UniProt P62993); assay: SH2 binding enrichment of the phosphorylated peptide, bacterial display (enrichment ratio); higher = better substrate or ligand; peptides without Tyr show the background
c-Src SH2 = assay: as above
SHP2-C SH2 = assay: as above
EPHB2 = EPHB2 (UniProt P29323); assay: phosphorylation enrichment, bacterial display (enrichment ratio); higher = better substrate or ligand; peptides without Tyr show the background
AncSZ = assay: as above
Fer (mouse) = assay: as above
FGFR1 = FGFR1 (UniProt P11362); assay: as above
c-Src = assay: as above
FGFR3 = FGFR3 (UniProt P22607); assay: as above
c-Abl (mouse) = assay: as above
MERTK = MERTK (UniProt Q12866); assay: as above
Jak2 = Jak2 (UniProt O60674); assay: as above
Hck = Hck (UniProt P08631); assay: as above
EPHB1 = EPHB1 (UniProt P54762); assay: as above
Fyn = Fyn (UniProt P06241); assay: as above
Fes = Fes (UniProt P07332); assay: as above
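Throughout, for SH2 binding enrichment of the phosphorylated peptide, bacterial display: peptide library displayed on the E. coli surface as eCPX fusions, selected cells deep-sequenced, score is each peptide's frequency after selection divided by its frequency in the input.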
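Throughout, for phosphorylation enrichment, bacterial display: 11-residue human phosphosite peptides and single-mutation variants displayed on the E. coli surface, counted by deep sequencing, each peptide's frequency after selection divided by its frequency in the unselected input library; frequency after pTyr selection over input frequency; kinase dosed for 20-30% of maximal phosphorylation in three min.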

Sequence of Jak2 (O60674 whole entry, looked up): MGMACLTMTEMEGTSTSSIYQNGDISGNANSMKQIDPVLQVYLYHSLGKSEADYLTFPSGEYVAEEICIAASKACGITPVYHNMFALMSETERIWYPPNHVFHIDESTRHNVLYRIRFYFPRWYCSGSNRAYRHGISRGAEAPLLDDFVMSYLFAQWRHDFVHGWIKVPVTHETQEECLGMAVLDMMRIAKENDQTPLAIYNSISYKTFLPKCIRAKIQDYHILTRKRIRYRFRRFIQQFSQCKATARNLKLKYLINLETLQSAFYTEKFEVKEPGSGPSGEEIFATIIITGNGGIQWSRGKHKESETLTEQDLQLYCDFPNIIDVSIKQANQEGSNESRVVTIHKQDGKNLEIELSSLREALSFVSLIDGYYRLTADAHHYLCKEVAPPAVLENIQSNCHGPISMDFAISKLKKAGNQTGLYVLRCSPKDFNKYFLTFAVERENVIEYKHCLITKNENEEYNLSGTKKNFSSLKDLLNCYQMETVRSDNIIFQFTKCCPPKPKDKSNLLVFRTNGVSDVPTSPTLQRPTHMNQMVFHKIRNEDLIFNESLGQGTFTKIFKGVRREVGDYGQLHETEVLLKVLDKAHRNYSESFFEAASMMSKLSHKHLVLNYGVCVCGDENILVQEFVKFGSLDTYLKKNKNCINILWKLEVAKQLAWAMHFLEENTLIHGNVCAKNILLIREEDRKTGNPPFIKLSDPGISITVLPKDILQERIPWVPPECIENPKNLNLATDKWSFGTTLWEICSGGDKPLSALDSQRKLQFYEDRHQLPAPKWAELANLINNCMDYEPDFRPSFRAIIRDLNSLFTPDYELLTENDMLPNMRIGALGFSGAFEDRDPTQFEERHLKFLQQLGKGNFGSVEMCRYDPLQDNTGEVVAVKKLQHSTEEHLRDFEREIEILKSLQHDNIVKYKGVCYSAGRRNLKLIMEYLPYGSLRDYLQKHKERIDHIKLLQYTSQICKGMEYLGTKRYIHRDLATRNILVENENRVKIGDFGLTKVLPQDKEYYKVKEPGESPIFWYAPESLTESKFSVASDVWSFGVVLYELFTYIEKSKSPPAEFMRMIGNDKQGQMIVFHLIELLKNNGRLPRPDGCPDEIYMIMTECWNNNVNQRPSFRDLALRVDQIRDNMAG
Sequence of EPHB1 (P54762 whole entry, looked up): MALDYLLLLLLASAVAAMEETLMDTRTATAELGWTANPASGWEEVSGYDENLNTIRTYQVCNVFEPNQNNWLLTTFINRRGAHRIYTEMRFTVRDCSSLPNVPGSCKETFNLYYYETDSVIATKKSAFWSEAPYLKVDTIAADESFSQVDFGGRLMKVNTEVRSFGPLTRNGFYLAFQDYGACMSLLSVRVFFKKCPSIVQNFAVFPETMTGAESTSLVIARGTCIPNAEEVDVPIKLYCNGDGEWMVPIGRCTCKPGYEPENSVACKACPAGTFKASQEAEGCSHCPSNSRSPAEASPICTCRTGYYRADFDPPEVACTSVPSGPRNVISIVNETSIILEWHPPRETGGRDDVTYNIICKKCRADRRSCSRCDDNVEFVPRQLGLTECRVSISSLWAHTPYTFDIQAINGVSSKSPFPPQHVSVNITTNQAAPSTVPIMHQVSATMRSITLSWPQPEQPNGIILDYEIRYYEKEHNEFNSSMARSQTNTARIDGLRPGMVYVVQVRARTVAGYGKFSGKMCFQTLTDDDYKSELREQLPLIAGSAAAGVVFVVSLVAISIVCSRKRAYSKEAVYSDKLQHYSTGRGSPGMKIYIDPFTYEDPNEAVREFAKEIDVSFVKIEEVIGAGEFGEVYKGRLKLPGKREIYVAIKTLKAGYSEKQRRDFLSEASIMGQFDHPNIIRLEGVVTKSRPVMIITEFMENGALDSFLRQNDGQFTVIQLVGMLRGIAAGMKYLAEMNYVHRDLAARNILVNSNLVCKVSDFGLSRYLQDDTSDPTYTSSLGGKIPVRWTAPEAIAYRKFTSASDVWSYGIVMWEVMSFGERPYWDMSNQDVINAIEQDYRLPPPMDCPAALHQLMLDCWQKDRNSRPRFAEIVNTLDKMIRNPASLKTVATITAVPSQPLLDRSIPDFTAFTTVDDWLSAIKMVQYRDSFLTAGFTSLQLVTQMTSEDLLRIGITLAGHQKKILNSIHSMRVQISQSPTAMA
Sequence of EPHB2 (P29323 whole entry, looked up): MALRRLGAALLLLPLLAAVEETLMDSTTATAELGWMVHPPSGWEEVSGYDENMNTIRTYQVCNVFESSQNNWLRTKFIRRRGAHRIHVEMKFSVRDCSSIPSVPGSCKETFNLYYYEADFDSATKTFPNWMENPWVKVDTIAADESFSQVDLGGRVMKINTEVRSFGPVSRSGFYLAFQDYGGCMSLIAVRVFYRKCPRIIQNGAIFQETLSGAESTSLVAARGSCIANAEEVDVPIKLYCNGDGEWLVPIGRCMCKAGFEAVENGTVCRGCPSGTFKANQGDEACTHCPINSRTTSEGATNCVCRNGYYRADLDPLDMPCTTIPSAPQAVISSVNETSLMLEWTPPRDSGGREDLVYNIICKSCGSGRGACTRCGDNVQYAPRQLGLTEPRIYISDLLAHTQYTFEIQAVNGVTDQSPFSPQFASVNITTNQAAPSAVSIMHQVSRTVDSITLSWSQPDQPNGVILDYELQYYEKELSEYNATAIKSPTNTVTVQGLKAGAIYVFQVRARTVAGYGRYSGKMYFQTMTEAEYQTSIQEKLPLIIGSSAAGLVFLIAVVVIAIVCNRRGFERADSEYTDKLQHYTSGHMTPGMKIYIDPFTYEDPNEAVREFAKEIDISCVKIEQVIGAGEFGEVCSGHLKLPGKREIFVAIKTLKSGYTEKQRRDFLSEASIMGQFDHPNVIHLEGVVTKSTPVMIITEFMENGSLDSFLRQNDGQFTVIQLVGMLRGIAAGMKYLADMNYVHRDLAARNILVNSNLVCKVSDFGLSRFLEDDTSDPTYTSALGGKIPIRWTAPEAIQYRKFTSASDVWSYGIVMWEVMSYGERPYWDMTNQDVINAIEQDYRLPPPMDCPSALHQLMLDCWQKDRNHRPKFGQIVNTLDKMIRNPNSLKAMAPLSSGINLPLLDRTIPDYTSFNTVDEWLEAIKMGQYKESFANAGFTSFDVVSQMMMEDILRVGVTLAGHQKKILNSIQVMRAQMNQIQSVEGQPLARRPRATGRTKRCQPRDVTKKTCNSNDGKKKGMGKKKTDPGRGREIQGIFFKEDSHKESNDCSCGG
Sequence of FGFR1 (P11362 whole entry, looked up): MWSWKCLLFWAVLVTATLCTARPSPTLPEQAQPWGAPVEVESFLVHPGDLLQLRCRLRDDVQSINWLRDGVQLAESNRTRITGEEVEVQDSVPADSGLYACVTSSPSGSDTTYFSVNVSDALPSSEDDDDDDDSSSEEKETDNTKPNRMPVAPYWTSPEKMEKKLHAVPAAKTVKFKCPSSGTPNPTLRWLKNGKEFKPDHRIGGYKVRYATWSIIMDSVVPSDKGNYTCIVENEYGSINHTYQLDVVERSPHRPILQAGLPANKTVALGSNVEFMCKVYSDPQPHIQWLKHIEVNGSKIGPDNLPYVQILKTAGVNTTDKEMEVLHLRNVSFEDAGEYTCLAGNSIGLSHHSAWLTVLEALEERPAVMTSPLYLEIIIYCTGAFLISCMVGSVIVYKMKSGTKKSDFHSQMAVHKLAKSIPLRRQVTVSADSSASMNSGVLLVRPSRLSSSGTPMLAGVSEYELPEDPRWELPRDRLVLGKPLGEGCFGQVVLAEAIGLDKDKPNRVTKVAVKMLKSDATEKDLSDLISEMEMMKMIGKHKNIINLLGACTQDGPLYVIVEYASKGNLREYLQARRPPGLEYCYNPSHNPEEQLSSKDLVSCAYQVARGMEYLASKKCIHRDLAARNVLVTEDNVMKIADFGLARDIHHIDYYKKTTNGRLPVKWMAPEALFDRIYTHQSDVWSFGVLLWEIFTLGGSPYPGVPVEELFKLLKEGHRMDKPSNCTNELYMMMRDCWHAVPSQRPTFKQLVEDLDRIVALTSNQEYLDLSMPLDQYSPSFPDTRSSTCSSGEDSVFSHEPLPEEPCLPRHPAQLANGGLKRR
Sequence of Fyn (P06241 whole entry, looked up): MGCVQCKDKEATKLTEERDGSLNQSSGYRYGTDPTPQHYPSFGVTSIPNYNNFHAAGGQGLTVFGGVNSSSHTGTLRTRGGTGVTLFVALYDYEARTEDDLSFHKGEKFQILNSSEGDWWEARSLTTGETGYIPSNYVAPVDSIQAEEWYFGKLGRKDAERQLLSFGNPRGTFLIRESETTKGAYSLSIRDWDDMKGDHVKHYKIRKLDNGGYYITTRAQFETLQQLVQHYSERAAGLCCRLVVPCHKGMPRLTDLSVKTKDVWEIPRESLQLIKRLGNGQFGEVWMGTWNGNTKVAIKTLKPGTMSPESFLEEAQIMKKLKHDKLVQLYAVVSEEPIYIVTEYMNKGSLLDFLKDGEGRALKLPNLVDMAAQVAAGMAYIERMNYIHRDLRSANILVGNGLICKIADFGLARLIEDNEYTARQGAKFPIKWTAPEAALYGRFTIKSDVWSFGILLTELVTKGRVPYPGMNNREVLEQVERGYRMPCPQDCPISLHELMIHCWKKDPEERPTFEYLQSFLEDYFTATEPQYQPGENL
Sequence of Hck (P08631 whole entry, looked up): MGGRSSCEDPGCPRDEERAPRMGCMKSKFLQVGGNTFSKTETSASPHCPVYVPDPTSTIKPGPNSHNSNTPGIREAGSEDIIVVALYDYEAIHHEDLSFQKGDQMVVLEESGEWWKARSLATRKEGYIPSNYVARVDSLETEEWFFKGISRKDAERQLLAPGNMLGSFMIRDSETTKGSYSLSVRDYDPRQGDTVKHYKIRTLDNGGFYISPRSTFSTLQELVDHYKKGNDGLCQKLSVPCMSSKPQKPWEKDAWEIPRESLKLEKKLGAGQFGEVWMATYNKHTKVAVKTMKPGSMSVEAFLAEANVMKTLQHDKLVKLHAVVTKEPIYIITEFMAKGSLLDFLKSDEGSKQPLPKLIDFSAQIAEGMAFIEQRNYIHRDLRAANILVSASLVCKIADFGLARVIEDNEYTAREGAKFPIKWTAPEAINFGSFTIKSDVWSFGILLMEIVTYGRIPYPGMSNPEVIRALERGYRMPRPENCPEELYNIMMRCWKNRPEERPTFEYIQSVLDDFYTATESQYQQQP

SH2 binding enrichment (Grb2 SH2)	SH2 binding enrichment (c-Src SH2)	SH2 binding enrichment (SHP2-C SH2)	Sequence	phosphorylation enrichment (EPHB2)	phosphorylation enrichment (AncSZ)	phosphorylation enrichment (Fer (mouse))	phosphorylation enrichment (FGFR1)	phosphorylation enrichment (c-Src)	phosphorylation enrichment (FGFR3)	phosphorylation enrichment (c-Abl (mouse))	phosphorylation enrichment (MERTK)	phosphorylation enrichment (Jak2)	phosphorylation enrichment (Hck)	phosphorylation enrichment (EPHB1)	phosphorylation enrichment (Fyn)	phosphorylation enrichment (Fes)
0.835	0.537	0.671	SVVVPYGPPEV [TP53_Y220_E221G]	0.543	0.75	0.402	0.57	0.425	0.556	0.601	0.476	0.689	0.41	0.472	0.46	0.739
0.865	0.495	0.59	AFDNLYFWDQD [ERBB2_Y1221_YF]	1.25	2.1	1.68	6.87	5.12	6.95	0.981	5.13	1.56	4.26	1.42	5.76	1.93
0.894	0.757	0.683	MSRDVYSTDCF [NTRK2_Y702_Y706C_YF]	0.675	1	0.516	0.64	2.4	0.803	0.874	3.02	0.855	1.14	0.754	2.71	1.2
1.06	0.601	0.601	PPEFSYGLQTQ [SRA1_Y35_Q32E]	0.802	0.724	0.453	0.568	0.486	0.772	0.661	0.428	0.997	0.416	0.565	0.446	1.09
1.9	1.34	1.61	LLRLAYLADIF [ZBED5_Y476]	0.677	0.872	0.745	0.64	0.419	0.636	0.765	0.432	0.99	0.54	0.69	0.457	1.02
0.739	0.649	0.575	RASDFYSQQMA [GBP6_Y334_A331S_YF]	0.683	0.755	0.37	0.444	0.675	0.605	0.738	0.957	0.688	0.539	0.708	0.423	0.682
0.712	0.438	0.608	RMLRKYQELMS [KRT74_Y425_E424K]	0.397	0.643	0.522	0.556	0.447	0.402	0.455	0.485	0.5	0.43	0.419	0.509	0.673
0.714	0.469	0.545	APGDAYGDAGF [SYP_Y250_YF]	0.548	0.938	0.491	0.484	0.464	0.521	0.565	0.426	0.8	0.566	0.514	0.494	0.905
0.862	0.675	0.698	NHYKIYNLYAE [PTEN_Y68_C71Y]	0.641	0.749	0.481	0.461	2.43	0.541	0.56	0.461	0.664	2.54	0.455	2.14	0.723
